Experimental data: the DeepSol protein solubility set

Experiment: soluble on expression in E. coli; label from the status in PepcDB or PDB records

Sequence | soluble on expression in E. coli
MAHHHHHHMRGKGHKRLAARSFQQWQKLHYNALCDRQMPTPLHATLRLPVRRVAHQPSSCPSAPASVDMQLTTNSSAVLQWWQREYDPFLLGCDASAHRTAGPTPPATTATHVLASTRVSAHVGPPAPPLGYPDYIAIEATQHTEGVLRGETYAYHHAAAVGAVPAPPPGAAYPSPVKWIQQPLLDGFVAQRLTAHIGVTTGSLLDTRRTAMALGRQLPPVELSPFYAASALLDRWCLFGEAAAVVPSMPASSGATLDGTQQSQRPHDAAAHHLRIAELALGAGLLSNYRAVWLNGAVLSHPGTARSVLVVGPRRSGKTTLALHCLSAAAMQASSSASGDGGVRLTAAEHFFLAAGMPVRRMLDPASTRLTSPTIFACSLPHHITVGLGAVLGTLRPNPGLAAAVELPSFLQCEAGLRACLRNTDGVLWDMSKTYRVRLEDIYRASSPDISTQWAPVVVNTLAGVVLLDWNVEELASASPTPVRNAVREIPLHDGGVEELLKRAQDYMFHGHHLLRTVYDAPQDAPARLADALADEWDTAQPRSLANGTAPALHCIEGSVNFDLATQLIMSLLSERA | not soluble
MAHHHHHHMRRWGAAGPLRSGLQLRQVASAARRRQPAQLKIPISDAPAHVKAMERPRSKLETPAAYSSFRSTETIEEFRENYKYLAAGERETSVTARVAGRITSLRDMGKMLFATVRSSGVDLQLVVHVGEHFTRDCLKQLRASLRVGDIVGAEGIPCRMQRGELSLAASRVEVLAPYVCRDQVVCPDLRGFTQLQDNDVRYRYRFVDMMTNRSVIDTIRKRHTVLQSLREYLDMRHFVEVETPILHTVASGANAKPFVTHHNANNADLFLRVAPELYLKQCVVGGLERVYEIGKVFRNEDADRSHNPEFTTCEFYAAYHTYEDLITMTEDIFRHLALRANGTTQLQIQCERAGITREIDLGATFRRISVYDEIQSASGVELPPPNELNTPKGLAYMSAIMLRHDIQFPAVRTAAKMFDKLIDFFITSHIVEPTFVMDHPIFMSPLAKEHSSRPGLAERFELFINGIEYCNAYSELNDPQEQCHRFQQQLIDRQGGDEEAMPLDETFLKSLQVGLPPTAGWGMGIDRVVMLLSGSSTIRDGIIFPLLRQDTRSHDCKRRHRVATFFDFNHQMALLCLSGVEQEMKRRGFPEASCAHIRELRQTIRDLGQRSGESDLTNFNCGEWWPGLTKTMIRLMCGRPRS | not soluble
MAHHHHHHMRVYECDFYSHPAVCKYRLPKPYRHPTLDKRLREQRSVREARALVRCQKQGIAVPAVYAIDRESCAIVMERIIGMSVRDVLNEAQRPLEGAVSPVAARLLEGMGEVVGLLHNAHIIHGDLTTSNFMYRTATVAEGKADSAACGAAPRDRLVVLDFGLVMDKNSAEERAVDLYVLERAIKSSHPSLEGVASAFILNGYRRTADPHQVEATITRLGAVRARGRKRSMVG | not soluble
MAHHHHHHMSAARDDSAPCAVPSTLWRECLKQYDYGPDRPKGACEAHRTKFYDCVKDWTARTQHKSYSYTQFELPKSCGHEAEKLHQCMMMNMFEVGHCQRDMAVLKRCAARVDPEVRKYLQDDEAIADLENDIDEATGLKRLWYKVIGKL | soluble
MAHHHHHHMSASPQLTRELSEDLLAGRYECVVCSEPVGHRQELWACSCCYGVFHLPCIRFWADSQMKARDRQLQSTSGVAVRGELERFRCPLCQSFKDKDSLAVYQCYCGKTAKPPADAMLVPGSCGQPCERRQADPCCPHRCTLLCHPGPCPACTRVREQACWCGKHSKTVGCSSSIHGYECDEACGKLLDCGEHRCKAPCHEGVCPVCTVMVTEKCYCGATVRTRRCGAAPPAFAGAAATAAADDRAAGDAGAGASVSGFRCAHHCEKKRDCDQHVCGMLCHPGLCEKCYRTPQRQKFCPCGKTRVQVERTSCMDPVPSCGLPCELPLPCGHLCWLTCHDETPCAPCKETVTVPCACGSRHVSSPCFCQYLPESEWEAARVQCGLPTDSLPVSVPPKCNQVCRHMLSCHKHRCTMTCCTDAEHTCLQICIRKLACGVHQCGRLCHQGKCPPCAHVSYERLYCRCRKTWVDPPVPCGMRPPQCNHPCSIPRPCGHPPNHPCHIEAECPKCVVLEEKPCASHQKPMPFHMPCYKKEISCGRKCGKNLPCCGKFCDLVCHIGPCEHDCAKSFPTLADVLKRGKGAAA | not soluble
MAHHHHHHMSAWASGDTLERLKLKPETAPSNRGNGRQASADATSSTSVKATSNADAEGVVQASMAATIASTNKNKNKKALEGKVSKKNAPKNTAHTADEKQPPTQEQTASSSGGAKRNEPKKGASDSRDCPVTLPSDVAELVVNAFTFIGTVQALRAGTSTDGRESMLSAAVRAPEFVPQRRDYAVQNATSGSDTQHVGELASNAYPMHHHHHHHHYQLHQQQKQPQHTPLVSTSRVQQQEQPPWAPYYNDQQHRQHHSVHHHRHQQQQQQLAYGQPDCTTGKMYHDAYSPVDYDMNLCAAPPYSRMYSGYPGMCMGANMLPNMSGYGGLALRRPLPYFPQQQNQVTAYKSTHVGQQQPWMRNDSGPSNARKGSGAGQWYPGGQAGFNDALSVWNQQRNAGNWARQAEQSGPAGAHTSSAP | not soluble
MAHHHHHHMSCITGITYLSSADINALSKGAGAGSSSGSRGTFVVREGDYVTGTITNVQGGSTPGIRLATSRGVTAFIAAVDICDEAMRVDLLEYIRRSEQLRDWNRHENGDARPPERAEAPVWLRRGALLQGTVSRCVWARCELHLQWCRPREELAGSGDDNGEKETAMPSYGNMERGGASSSVNSLNTAQVEQQVRVFATKMSRHPLFRDVSKNGAADMLRDKEIGESLLRPRTASVHRVVCEVKVGSNATNHWVISEERHANGQFYYKVEDRVVDRQWEFTDVDDFLCNFVEPMVKLIQSIRVHRRFEDSTEYVQAALDAQREVSGGFAYAFAETESKRHLYQVYSSGGNETYHFPLHITSEFIYIRLPFFHDGKASNKWVPCKSAEKVSETVKNYARAMSKRSVNGELH | soluble
MAHHHHHHMSDAAPGPAPAPVTAAVDAPPLPAPTKVKPPRKKPPRAEEANPRLLAPANGVAAQQQKQRDKEFATHKAHILTNLQTNACDLSPKGSLDAKCLPVMGVLNTHKDYVTTSSCSGRIALFHSIKHSEACGADDGTATPKPRMKRGENAALGWVFVKHGMLRPMEMAQVVGFLCGAPTTPEDVALDSAQMEKHAAHMASVSCSAHCHSAAPGSLLAEMYDGEVEGALVGARVSGDEVAALPVPTRGTVSLKMEPFVMHVQCRTMEAAKLLLSAVVSDSGFRNSGVVPPGKKIMCGIRSAAGLGLEVPVVVDGVNHVASQRAYVWALLGLANEKMEANEKKIKLLERSVAARVLPA | soluble
MAHHHHHHMSDKLEDIGEFVLVIGDFHSPMRNLGLPDCFKDLLKTDKIKHVLCTGNVGCNENLELLKNIADSVHITKGDMDNNFDFPEKINIKIGDFKISLVHGHQIIPWGDLNALLQWQKEYDSDIIISGHTHKNSINNFEGKYFINPGSATGAFQPWISNPTPSFILMAISKSSIVVYVYEEKNGKMNVEMSELRKQ | soluble
MAHHHHHHMSDLRRVESLNADTFRRLNATSVVKSFWHTQLRAATAASRGAKDDSLATANEETPVATRKLRSAASSAEKSAGGLTDSTVYSSSSSSSNSRLSVSATLPGFPSPTETRRRLRAAALSAERHRAEESDEEKPDPVARTLFQNFLLQEYDALDSRPVLTVVLDLDETLVSNRDSGATGAILRPYCLHMLNALRHMQGLEVVLWTASTKETAAPVIRQLSQSGPVFDDVICRNSSWFTEPLHTKDLRLLGRDMSRVIIFDNSTACCKLNPRNAVIVDDFRGVRNTSDAALVNVYYIIERSFNGCCAGVSVLETLVKLAVEKQLCMPEVLHLPESWRHIPLREIAPLKVPPHGIFFRAHSTPLNDSIMQHWTV | soluble
MAHHHHHHMSFKPKIIVCSSPAELSGVACKKIVDIIHASERTNWPLSIALSGGSTPKMLYSRLHEEHLHLLKEERALRFFFGDERLVPADAAESNYNMARQALLHDIPEDLVVPVDVGCVGEVSNVACNDAVKAADAYEKRIDLLLGTQKVEGMEAEIPVFDIVLLGLGSDGHTASIFHGSQAESEMHRAVSVGFPSPTMSPKVWRVTLTPITIIHARHVILLATGKEKKCVLNGIIADTPTEVPVSRFLRNCKGDVTFILDREIAENLTC | soluble
MAHHHHHHMSKKEAISTPRKSKKAEVVIEGCVTIGSKQLLPSALDESRREQLSKQFDDIIEAHVAIDGGIADPVAAKIKELPTLSVGFIARAMGLNLSNDQVLSLVEMVEERDTVSRGCVPVGPLKEIIVGALMSGVITRQDSVAPTSNRKKRHSVSENRPLMHVSRDSEELIYAAFRTLDVGNRGYMEAEELRHLFRSGLEPFTDEEMENMIAAAADPQNGLIFYEDFVDVLANE | soluble
MAHHHHHHMSLQAGGVVNGVIPGVVPPHDRTQEVCKYFVNGGCLRGANCPYLHELPDERHLDVNGLGFILNPNVHNAQKTVASPQTQVAASTPSQPLKASGSSFTMMLNNQNASQSRVFSPTKAAKHQPPSMSGSSSASPQTMQMGKLPAPPKYNPPEPYLELNLPPALAFPLKVPAKDTTATLTHLMLQN | not soluble
MAHHHHHHMSNQGDFNTYIYIPVKCNESIKKRCELCFDVLFKLIEMKHKECYNKSKEKNLLCHNDINKGEIHKHIYYQLYKLNEHIKENNIEKDFKEPLHITISGSLNLKRYMINSFINKIKEELKNQNSFYLFFRNEVDLYKSQKNTKYFCSYTVKEDQQELYLNTLKEKINKILNEFDLKDTHLNRIYHLSLAYTNINLDVLLEKENKKCVEEETFFWPNINELILNKDIKENRLDDLYIYVNCIHIRIGYKLYKIPFKSFDDNLNVSDSYDSYMSSTDE | not soluble
MAHHHHHHMSSPERGASPPPAEEDKKEKRVIIILEGAHLQLIETKRYIYELANSMKHKHLLRDKKKEEEIRNFRPDILHQCLIHLLESALNKYGLLQVYIKTHDNQLFFVSSNLKIPKTYDQFESLMVTFLRKYKIKANEKNLCLLKFLKNDYNAILPINGKKIGLSVKGRKVHLPDYVQNFQNENMPVTFFIGAVAYSNPITKLENLDDNISISEFSLSAATCCSTICSEFENLWGVF | soluble
MAHHHHHHMSSSAVPAYEGKQKVYALLNGTFHAAIVLEVAEDATEGGFLYYVRYVEQDSRLDQWLQASDIKERHQGRTHHGSSCTHQQYTPSGIKTRRQSHVTEQQNAETAVLTGEGVGMPTEVSANAKGGGAAPHLVKVSKTRARRDSAFFSRTKNIYSICMGPHEVETWYFSPYHLARPEVQQRLQAASQCVTGSTELQLVQSTTSPGGTSGVSTGIADVGGGAGGTGNVSVGAGGSGRGSGAGMRQWPIATRSFSLHICPYCLRPFLDNAAVVRHLQQDCLRHPPGNEIYRDPVRRLVVLELDGSLEPTFCEHLALLSKLFLEHKALDHDMTPFLFYVLCSVETHGLQVLGYFSKEKQTPEPYNLSCILVLPQYQSRGIGRFLIELSYELSRREGKVGTPEKPLSDLGEKLYLSYWADSVTMAIARAMEEGHCVSVDYLVQATAMIQADVIRALQHQKLLNGHQLTISEDIVERCYTKRLTKERDITSYTFYTHLLSWAPGFYEEFRGVPPAPTFVPWRDPSAPHSRTGG | not soluble
MAHHHHHHMSSSDGQGMRAVILVGGFGTRLRPLTLTTPKPLVPFCNKPMIIHQIEALKAVGVTEVILAVAYRPEAMKEQMDEWSRKLGVLFVFSVEEEPLGTAGPLALARDILMQDDKPFFVLNSDVTCPFPMQELLDFHKAHGGEGTIMVSQVTQWEKYGVVVYSPQNYQIERFVEKPSSFLGDRINAGIYIFNKSILDRIPPCRTSIEKEIFPSMAAEGQLYAFNLEGFWMDIGQPKDYILGMTKYIPFLVHSNRETEKLHTEATKHQRGGRFTVIGASLIDPSAKIGDGAVIGPYASIGANCVIGESCRIDNAAILENSKVGKGSMVSRSIVGWNNRIGSWCHIKDISVLGDDVEVEDGVVLIGTKVLPNKDVGEHHFEPGIIM | soluble
